The values below are quoted from earlier work in PMC2683937.

Broadly, the Kd is the free concentration of one partner at which half of the binding sites on the other are occupied at equilibrium, for simple one-to-one binding.

The target in one data set is TGF-β1 (Homo sapiens) (UniProt P01137).
A further data set deals with BMP4 (Homo sapiens) (UniProt P12644).
Chain of UniProt P12644 (P12644 293-408): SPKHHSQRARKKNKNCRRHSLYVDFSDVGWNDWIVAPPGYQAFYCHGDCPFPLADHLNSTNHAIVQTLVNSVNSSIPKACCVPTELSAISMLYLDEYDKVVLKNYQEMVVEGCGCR

Chain of UniProt P01137 (P01137 279-390): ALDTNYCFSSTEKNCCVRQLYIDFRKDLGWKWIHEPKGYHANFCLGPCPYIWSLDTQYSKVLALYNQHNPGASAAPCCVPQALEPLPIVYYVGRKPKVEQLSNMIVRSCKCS

With CCN2 (from UniProt P29279), the Kd was 30 nM with TGF-β1 (Homo sapiens) and 5 nM with BMP4 (Homo sapiens).
